Results on 3 molecules are retold here after paper PMC4303316 (Biochemistry, 2014).

No end group written: not given here.

By Kd is commonly meant the free concentration of one partner at which half of the binding sites on the other are occupied at equilibrium, for simple one-to-one binding. Lower therefore signals a tighter complex.

T1: EhPAK4 PBD, tag removed (crystallographic construct) (Entamoeba histolytica (strain HM-1:IMSS), UniProt C4LSU1 12-78)
T1 sequence (looked up): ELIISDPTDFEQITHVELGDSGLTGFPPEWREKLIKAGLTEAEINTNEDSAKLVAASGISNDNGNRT

B1: His6-EhPAK4 PBD (p21 binding domain of Entamoeba histolytica p21-activated kinase 4) (domain or fragment, Entamoeba histolytica (strain HM-1:IMSS), UniProt C4LSU1 12-78, looked up)
chain: T1 sequence (looked up)
B2: His6-EhPAK5 PBD (p21 binding domain of Entamoeba histolytica p21-activated kinase 5) (domain or fragment, Entamoeba histolytica (strain HM-1:IMSS), UniProt C4MBQ2 105-161, looked up)
chain: His6-DISEPTDYHHLTHVAYEEGGFVGIPYEWENVFLACGITREEIKSNKEDAIKVLEFTQ
B3: EhRacC^Q65L (GTPase-deficient EhRacC mutant, GTP-bound) (enzyme, Entamoeba histolytica (strain HM-1:IMSS), UniProt Q24816 1-182, looked up)
chain: MSEKPTSIKLVVVGDGAVGKTCLLISYSIRKFPEDYIPTVFDNYVVSLTAGTRQIQLALWDTAGLEEYDQLRPLSYSSASIFLICFSVTSSVSYDNVITKWHPEVIHFAPKVPIILVGTKLDTRNDPAIVKRLTEQGMTVINTAKGEELKNRIKAVKYIECSAKTSENLKTVFDEAVKTVLM

Test [1] concerns the target B3. Nature of the test: SPR. A general note: In SPR one partner is held on a chip, and binding of the other changes the refractive index at the surface.
The target of test [2] is T1, EhPAK4 PBD, tag removed …. Nature of the test: SEC.

In the case of B1, the Kd in test [1] was determined as 170 ± 30 nM.
Still for that read-out and setting: as for B2, the figure is 1900 ± 200 nM.
Consider B3, for which, in test [2], the “stoichiometry N” value was 1 EhRacC:EhPAK4.
